Experimental data: the DeepSol protein solubility set

Experiment: soluble on expression in E. coli; label from the status in PepcDB or PDB records

Sequence | soluble on expression in E. coli
MSLVGDVYLGVGSASSEYWAAYIEGAKAVASSLGKDVNVIPSEFDGQKLLEQFGAVFAAGCEDCVVTVDPASNAFTKAMIERADTAGAKYVNLWNRPDEIHPWDTVPNTWIANISFDGVDSGYQNGMALCNALGGKGNIVALNGIPDNPPAKQRIAGLHKALQECPGLKLLDTQVGNWDQTQGQSITRAWLAKYGDELNGIFSANDGMALGAVAALREKGLVGKILVTGSDGSSDVIKLIEKGEMLSTMHIDGYVQGAYAVALAAAAVKGDIKMDELKQDQRDFFLSQTLVTKDNAASVLNSKEGHHHHHH | not soluble
MTEEFYIGTYTKRISRGIYRVSVDTTTPKLMDCEWLASAGSPTYIAKSNAKRLYVINKKETDGQTHGGLIIYDMSEDKPRAIQQLLDLGSSPAYVAVDEDRQLVYTANYHTAAVDVYAINPDGTLKRTDQVIDQDPVGPAPEQADGPHPHFADLTPDNRLVVCDLGSDRVYVYDVSATGKLSAVSHLDLPAGYGPRHIVFDAKKGVAYLVGELSSNVATLSYDTATGTFTVKTIVSTIPDDWTAHNGAAAIRLSADGKFVYVSNRGNNSLAVFASDEAGQLTLVQRISTEGDFPRDFNWTANQRLVLVVNQNSDNASLFERDAQSGKLTLVQKDFMVPEGVSVLPAKLEHHHHHH | soluble
ISEFGSMNVILSIDQSTQSTKVFFYDEELNIVHSNNLNHEQKCLKPGWYEHDPIEIMTNLYNLMNEGIKVLKDKYTSVIIKCIGITNQRETVIIWDRITGKPLYNAIVWLDTRVEELVTEFSAKYNNNDIQKKTGTYFNTYFSAFKILWLIQNNPEIKQKIDDGTAVIGNINTWLIFNLTKGNCYTDVTNASRTLLMDINTLQWDEKMCKIFNITNMSVLPEIKSNCSNFGLVKSEHVPDYLNIPITGCIGDQQSACIGQAIFDEGEAKCTYGTGVFLLINTGEKVVYSTCGLITTICYKFNDNDKPKYALEGSIGTAGSGVSWLLKNKLIDDPSEASDIMEKCENTTGVIFVPAFSGLYAPRWRSDARASIYGMTFNTERSHIVRALLEGIAFQLNEIVDSLTSDMGIEMLHVLRCDGGMTKNKPFMQFNSDIINTKIEVSKYKEVTSLGAAVLAGLEVKIWDSLDSVKSLLRRSDAVFHSKMDDKKRKKKTSEWNKAVERTLIQL | soluble
MTLDLFAPQPKTNLLPYDGDVEDYGCFISTAEAEQYFQYFLKHLAWRHDEARLYGKHFITPRQVAWYGDDHYRYAYSGIMRDSLPWDPQLLILKQQIEQTLAERFNSCLANLYQEGTQGMAWHSDGDMSLAKQTTIASLSLGATRKFCFRHLRTKEKIEMQLQSGQLIVMRGETQQHWQHAIMKSQKVIHPRINLTFRQFLLLEHHHHHH | not soluble
MKMWQRKTDSSGVIQMDLKKLEGIFEGMLFASGDKVSIEKLSSITGIDKKTVKLVINNMIVKYNNDPSRGITIREINNGYQLCSKPEYYDYIKQLFEPKQRSGLSQAALETLAIIAYNRPITKAKIEQIRGVNSDSAITKLLEKNLIREAGRLDAPGKPVLYETTDEFFRSFGFKSDADLPIFELNDIHETVEINQNSEQEKADTELEKQEKA | not soluble
MAPITVGDVVPDGTISFFDENDQLQTVSVHSIAAADGFLDFDLRIGVFGFSEVSMSHVPGFIGKAEELKSKGIDEIICFSVNDPFVMKAWGKTYQENKHVKFVADGSGEYTHLLGLELDLKDKGLGIRSRRFALLLDNLKVTVANVENGGEFTVSSAEDILKALLEHHHHHH | not soluble
MAHHHHHHMTAKSPCLDILPFIFREEQISNRIQTFPTETMKKAYLELKGYFEQYKIYAEKLINFSGSMNDENQRKEKLIIKLRCEYYAVIFSQASKLLHEYINFRNRLILELAINVNGLINSIHPNIIQRLNEDEQKELQKYCENIRSERTRSKLQNKFTVCFLNDLIIEDLNYEGVQKDMKGRNVFYSAGLKVSVFEDKALDLQKCEWAKILRD | not soluble
MSLPKIIPAIMAGGRGTRLWPLSRATAAKQFLKLIGEETLFQDTLKRVSDAKVYGAPLVITNEEFRFLVAEQARELGVTLSSIVLEPVPRNTAAAVAVAARIVADRFGEDALLLVLPSDHAITVDDTYKKCVRSACIAAAEGKLVTFGIQPTWPATGYGYIERGTYLGKDVHAVQCFVEKPSLEKAAALLETGNYYWNSGMFLFQAASIIAELEEHAPDVLSAVHAAVRGSTVDADFIRLAPESFSQAPSISIDYALMEKTANAAVVCSDFAWSDLGSWDAVWKNEEQNADGNVLKGNVTACNTKNSLVLSHTAHLAVQGMDGVAVIASEDAVFVGRLEEAHEIGNLVKRLAADENTARLTELHPTLIRPWGGYTTMLNGDRFQVRRLFVRPGKMLSLHKHFHRSEHWICVKGTAEVTIEDRVTILHENQSIYIPEGAIHRLGNPGKIMLELVEIQTGAYLGEDDIIRVADESRNEMPDSREGHHHHHH | not soluble
MAHHHHHHMELGTPNVLPGYDASKSANGSENAKTIISDVNANYNAERKNHTVTHNDEKEGTTHDGGGDEPPQTHSNTERDKEDKIKFEKKKKKSDKLKKEREKEIVVAYWLKGIVKILNAGLKNGDIKGSNFIGKKIAEVLKKVVEISHWNNVYDLIEIIKYLGKEIIRNNKMYFIIPNIIRRVLTIIRTEHFKQLYLYNNNYVDNLNKNNNFLVDKNTNKCINSKYVYEREIKNFEQSFSFYFENNSKKNTYHIPATNTLRHSIIEGITELIADIDTSWGETEQRTSYDLFMENDVILTMGYSVGVEKFLKNINKKKDGISVIVVGGDINRNGFRMAQLLSEDGVDTTYISDSAVFAVIPKVTKVVLGSVAVSSSGGVITKIGGYNIACSAQFNSKPVTIVLPLFKLINDPFYDPIRQNELQPGPSMIYNDADNLYVRIPKYDYIPEHLITLYITEIGPVDSFQLYNITKRTYHPDDLDLSFD | not soluble
MCRLLGFATAGSNTNLNGVLGMQNVRDFRNLSEIHNDGWGAALITVPDESPYRRDGGAPTPETGTAIYKNTIAARHDPIFDELANTPARGGLWHLRLASSNLPLILENQQPFYANGLSFIHNGDISDDQGRNIITNRAFPVDPSIVQSTGGRSDSAIFFAVILQYIGFGFALDEAVAQAVRELRKSYPKSSYNCMIQSQDQFIALCAAGREVTSKRIVEIYDQYGRGEQARDYRVLRYRALGGNDDQSKGVVVASSGFDQRAEDGWTRLENDQMIVASNRTGEFRVRSI | soluble
GMLKILATQFNGKLQTLTKQEDELFDVVRLLAQALVGQGKVYLDAYGEFEGLYPMLSDGPDQMKRVTKIKDHKTLHAVDRVLIFTPDTERSDLLASLARYDAWHTPYSIITLGDVTETLERSIAPLALKFDKGLLPAEDGSRHGLPSLALGAFLLTHILTQLQEMTEEWE | soluble
MEKSVSVILLAGGQGKRMKMSMPKQYIPLLGQPIALYSFFTFSRMPEVKEIVVVCDPFFRDIFEEYEESIDVDLRFAIPGKERQDSVYSGLQEIDVNSELVCIHDSARPLVNTEDVEKVLKDGSAVGAAVLGVPAKATIKEVNSDSLVVKTLDRKTLWEMQTPQVIKPELLKKGFELVKSEGLEVTDDVSIVEYLKHPVYVSQGSYTNIKVTTPDDLLLAERILSEDS | soluble
MSLARCERLRGAALRDVLGRAQGVLFDCDGVLWNGERAVPGAPELLERLARAGKAALFVSNNSRRARPELALRFARLGFGGLRAEQLFSSALCAARLLRQRLPGPPDAPGAVFVLGGEGLRAELRAAGLRLAGDPSAGDGAAPRVRAVLVGYDEHFSFAKLREACAHLRDPECLLVATDRDPWHPLSDGSRTPGTGSLAAAVETASGRQALVVGKPSPYMFECITENFSIDPARTLMVGDRLETDILFGHRCGMTTVLTLTGVSRLEEAQAYLAAGQHDLVPHYYVESIADLTEGLEDEGHHHHHH | soluble
MSLDANVRTVKWNGIPLHEASSAIVKEETNGDFYLTVRYPITDSGIYQLIKEDMLIKSPVPVLGAQLFRIKKPIENDDSMDITAYHVSDDIMKRSITPVSVVGQGCAMALSQMVQNAKTGLGDFSFTSDIMDSRTFNTTETETLYSVLMDGKHSIVGTWEGELVRDNFALSIKRSRGADRGVVITTHKNLKSYQRTKNSQGVVTRIHARSTFKPDGAEDEVTLRVSVDSPLINSYPYINEKEYENNNAETVEDLRKWAEAKFTNEGIDKVSDAIEIEAYELDGQVVNLGDTVNLKSRKHSADLYKKAIAYEFNALTEEYISITFDDKPGVGGSGVSSGLSNVADAILVASATAQDVAVQRAVKNANAAFDAEFGKTKTKINDDIEIAKAKVESFKSELSNRMDNQLLPLATEAKNLASQAQADLTRKEIELRAELNREGHHHHHH | not soluble
MFTGSIVALVTPMDEKGNVSRSCLKKLIDYHVANGTSAIVSVGTTGESATLSHDEHGDVVMMTLELADGRIPVIAGTGANATAEAISLTQRFNDSGIVGCLTVTPYYNRPTQEGLFQHFKAIAEHTDLPQILYNVPSRTGCDMLPETVGRLAEIKNIIAIKEATGNLTRVHQIKELVSDDFILLSGDDASALDFMQLGGHGVISVTANVAAREMADMCKLAAEGQFAEARAINQRLMPLHNKLFVEPNPIPVKWACKALGLVATDTLRLPMTPITDHGRDIVKAALQHAGLL | not soluble
MIELSHEEELRYNRQIILKSVDFDGQEKLKASKMLIVGLGGLGCAASQYLAAAGVGNLTLLDFDTVSLSNLQRQVLHCDARLNMPKVESAKIALEQINPHINIETINAKLDEEKLAEIIPHFDIVLDCTDNVEIRNQLDRQCNHMKVPLISGAAIRMEGQVSVFTYEPNTPTYRDLSKLFRQNVLSCVEAGVLAPIVGIVGCIQALEAIKVRLKIGKNLCGRLLMIDGFSMNIREIKLPTNME | not soluble
MKSALSLLGERQQSLLTALLHHRKGLTVEELSSLLTISRNAVNQHLTHLGSSGFIQSALQESTGGRPGRVYTLTPNGLELFQRRYSFLAKLLLSWIDKNMGEHELDVCLTELGKEMASGLEHRLTQHTSRSDKLQEAITIMSELGYDTEIYRISENQAEIVANNCVFQELAQQHQEFCKLDISFLKHLLKADIEHTECIVRNGKYCRFRITSPDESGS | not soluble
YRALFEHAIDGIFIMDAEGHYLDVNPAICSAIGYTRDEFLALDWGVLSRGVDSGWAAASLARIVGGEPLREERTVWTRNGDQLTVELSAHLLPDGKILGIARDVS | soluble
MGSDKIHHHHHHMDSNIFISTYHIRYGQEDSSMNKLKILFVLFTNIKTGAGTEKSLYYYLKYADISKFDITVLQTNLMPGGQRLSDSDLETIKNKAKFIEIKDYRGLLGFIRNKYLSYLLNLFILPMLLKICKYTVYHKKLKQLKDSNVIYLFNNDYSNLFSHKSVVIGSNHCAFDNLDSFSQKLIARLLSLRIILPSITAFHLFPHNVSFKEYFGNKPLILLSNGVDTDLYYPSHSQNLKTKILFVGRLEEVKGILMAIKVYNNIKKMFPVEFVIVGSGSLESEVDKLCASDTNVKHFKHVAENDLANIYRSCDIFLYPTQGDSYALVVLEALSSGLKVVTTVNIYRVYNDFIRFNVIKFADFDEKSLTQALLDIKNTVINKNEIHNYIEKNYSWKKVSENLFNLMYNLAVKN | not soluble
MSLKFTAIDFETANEKRNSPCSIGIVVVKDGHVVEKSHHLIRPKEMRFMPINIGIHGIRPAMVEKEPEFDKVWEKIKHYFDDTLVIAHNASFDISVLRKSAELYNIELPEFNYICTMKLARNFYKGIENAKLNTVNNFLGYEFRHHDALYDALACSNIMLSISKELKCKDITEISKLLGVTVGKVDSKGYKPSQTKGIAVRTSDRIYFSKKKSAFERLKADEFKNEVVVFTGRLDSMSRDEAMGLVRRLGGTAGSSVTKKTTILVTNMKNIKNLRREEMSNKLKRASDLNARGQNIKFLNEEEFLKIKEGHHHHHH | soluble
